In paper PMC9239176, “Involvement of the DNA Phosphorothioation System in TorR Binding and Anaerobic TMAO Respiration in Salmonella enterica”:

Columns and labels:
[1] = system: Biotin carboxyl carrier protein of acetyl-CoA carboxylase (Salmonella enterica serovar Cerro 87); assay: pull-down LC-MS/MS; details: EMSA: 50 nM DNA, 20 mM Tris-HCl pH 8.0, 50 mM KCl, 10 mM MgCl2, 5 mM EDTA, 10 mM DTT, 5% glycerol, 28 C 30 min, gel at 4 C, pull-down: cell lysate, 4 C 4 h
[2] = system: DndF (Salmonella enterica serovar Cerro 87); assay: pull-down LC-MS/MS; details: EMSA: 50 nM DNA, 20 mM Tris-HCl pH 8.0, 50 mM KCl, 10 mM MgCl2, 5 mM EDTA, 10 mM DTT, 5% glycerol, 28 C 30 min, gel at 4 C, pull-down: cell lysate, 4 C 4 h
[3] = system: DndG (Salmonella enterica serovar Cerro 87); assay: pull-down LC-MS/MS; details: EMSA: 50 nM DNA, 20 mM Tris-HCl pH 8.0, 50 mM KCl, 10 mM MgCl2, 5 mM EDTA, 10 mM DTT, 5% glycerol, 28 C 30 min, gel at 4 C, pull-down: cell lysate, 4 C 4 h
[4] = biological target: T1, TorR CTD (Salmonella enterica serovar Cerro 87, UniProt Q8ZKZ5 127-230); assay: EMSA; EMSA: 50 nM DNA, 20 mM Tris-HCl pH 8.0, 50 mM KCl, 10 mM MgCl2, 5 mM EDTA, 10 mM DTT, 5% glycerol, 28 C 30 min, gel at 4 C; pull-down: cell lysate, 4 C 4 h; details: protein: recombinant; tags: His (pET28a, Ni-NTA)
T1 sequence: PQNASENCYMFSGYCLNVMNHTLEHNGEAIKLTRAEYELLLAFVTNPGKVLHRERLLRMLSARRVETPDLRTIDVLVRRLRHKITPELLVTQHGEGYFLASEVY

[5] = phosphorothioate: strand 1 between G13 and A14, strand 2 between G15 and T16

**Q.** For “GGCCCACTACGTGAACCATCACCCTAATCA (double strand) [B12]”, which binding signal (normalized spectral count) [1, 5] is on record?
**A.** Its binding signal (normalized spectral count) is 1.41.

**Q.** And the binding signal (normalized spectral count) [2, 5]?
**A.** The binding signal (normalized spectral count) was 20.2.

**Q.** What about the binding signal (normalized spectral count) [3, 5] of the same molecule?
**A.** The binding signal (normalized spectral count) was 30.9.

**Q.** For “GGCCCACTACGTGAACCATCACCCTAATCA (double strand) [B34]”, which binding signal (B34/B12 ratio) [1] is on record?
**A.** Its binding signal (B34/B12 ratio) is 2.78.

**Q.** What about the binding signal (B34/B12 ratio) [2] of the same molecule?
**A.** Its binding signal (B34/B12 ratio) is 0.43.

**Q.** What about the binding signal (B34/B12 ratio) [3] of the same molecule?
**A.** Its binding signal (B34/B12 ratio) is 0.32.

B1: tor box1, PT (dsDNA)
DNA 1: CCTGCGCGCGGTCTCTTTCTGTTCATATCT
DNA 2: AGATATGAACAGAAAGAGACCGCGCGCAGG
modifications: phosphorothioate GpsTTC/GpsAAC
**Q.** Does B1 bind [4]?
**A.** Result: binds
